In patent US20190359986A1:

Biological target: TNF-α
Assay: cell-based or functional assay

## Etanercept (Fc fusion)
  EC50, L929 cytotoxicity assay (protection of L929 cells from TNF-α): 1.1 ng/mL

## Recombinant soluble TNFR2 (rsTNFR2) (from UniProt P25119 23-258) (receptor)
  EC50, L929 cytotoxicity assay (protection of L929 cells from TNF-α): 698 ng/mL

## mouse TNFR2 Δ7 with His-tag, from clone 1144-4 transfected HeLa cells (receptor)
  EC50, L929 cytotoxicity assay; extracellular media from 1144-4 transfected HeLa cells: 2.4 ng/mL

## mouse TNFR2 Δ7 without His-tag, from clone 1145-3 transfected HeLa cells (from UniProt P25119 23-474) (receptor)
  EC50, L929 cytotoxicity assay; extracellular media from 1145-3 transfected HeLa cells: 2.4 ng/mL
